This assay has as its target amylin receptor (membrane-bound, rat basal forebrain membranes containing the nucleus accumbens and surrounding regions) (rat). Put plainly: competition with ^125I Bolton-Hunter amylin on rat basal forebrain membranes, filtration.

In patent US20140066368A1 one finds IC50 data, which are given here for 14 molecules.

Numbering of substitutions follows the chain as printed. Bridge positions count the residues as written; N and C are the ends. Ends that are not written are not given here.

With ^29Pro-h-Amylin (peptide), the IC50 turned out to be 0.064 nM.

Consider ^28Pro-h-Amylin (peptide), for which the 50% inhibitory concentration (IC50) amounted to 0.015 nM. Under ^1Ala-h-Amylin (peptide) stands 0.148 nM. ^1Ser-h-Amylin (peptide) showed a half-inhibitory concentration (IC50) of 0.033 nM.

B1: ^25,28,29Pro-h-Amylin (peptide)
peptide: KCNTATCATQRLANFLVHSSNNFGPILPPTNVGSNTY-NH2
modifications: disulfide 2-7
In the case of B1, the 50% inhibitory concentration (IC50) amounted to 0.01 nM.

B2: des-^1Lys^25,28Pro-h-Amylin (peptide)
peptide: CNTATCATQRLANFLVHSSNNFGPILPSTNVGSNTY
Molecule B2 yielded an IC50 of 0.085 nM.

B3: des-^1Lys^25,28,29Pro-h-Amylin (peptide)
peptide: B2 peptide with S28P
Turning to B3, the IC50 is 0.014 nM.

B4: des-^1Lys^18Arg^25,28,29Pro-h-Amylin (peptide)
peptide: B2 peptide with H17R, S28P
For the molecule B4, the IC50 is 0.021 nM.

B5: des-^1Lys^18Arg^25,28Pro-h-Amylin (peptide)
peptide: B2 peptide with H17R
On to B5, for which the IC50 is 0.082 nM.

B6: ^25,28Pro-h-Amylin (peptide)
peptide: KCNTATCATQRLANFLVHSSNNFGPILPSTNVGSNTY
For the molecule B6, the IC50 was 0.026 nM.

B7: ^18Arg^25,28,29Pro-h-Amylin (peptide)
peptide: B6 peptide with H18R, S29P
B7 displayed a half-maximal inhibitory concentration (IC50) of 0.021 nM. The IC50 values of the last two molecules are within 1.5-fold of each other.

B8: ^18Arg^25,28Pro-h-Amylin (peptide)
peptide: B6 peptide with H18R
Consider B8, for which the IC50 is 0.032 nM.

B9: ^25Pro^26Val^28,29Pro-h-Amylin (peptide)
peptide: B6 peptide with I26V, S29P
B9 returned an IC50 of 0.018 nM.

B10: ^2,7Cyclo-[^2Asp,^7Lys]-h-Amylin (peptide)
peptide: B6 peptide with C2D, C7K, P25A, P28S
modifications: lactam 2-7; ends not checked
As to B10, the IC50 turned out to be 0.31 nM.
